Patent publication US20180318418A1 (UNIQUEST, published 2018)

Experiments:
Assay in all cases: dot blot, peptide on PVDF membrane
[1] = target: T1, peptide 05/08 (BARF1 201-221) (Epstein-Barr virus)
T1 construct: Spotted on PVDF membrane for dot blot; also called 05/08201-221
T1 peptide: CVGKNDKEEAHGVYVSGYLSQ

[2] = target: T2, peptide 06/08 (BARF1 104-120) (Epstein-Barr virus)
T2 construct: Spotted on PVDF membrane for dot blot; also called 06/08104-120
T2 peptide: CRMKLGETEVTKQEHLS

peptide 08/08-2 = target: T3, peptide 08/08-2 (Epstein-Barr virus)
T3 construct: 8-mer derived from 08/08 (BARF1 27-40)
T3 peptide: TSYWRRVS

peptide 08/08-2′ = target: T4, peptide 08/08-2′ (Epstein-Barr virus)
T4 construct: 7-mer derived from 08/08′ (BARF1 28-38)
T4 peptide: TSYWRRV

Measured: binding result

B1: anti-BARF1 3D4 monoclonal antibody (antibody, V domains shown)
VH: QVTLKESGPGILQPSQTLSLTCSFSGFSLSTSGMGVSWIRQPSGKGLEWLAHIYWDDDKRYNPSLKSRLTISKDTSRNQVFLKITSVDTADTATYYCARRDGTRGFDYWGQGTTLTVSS
VL: QIVLTQSPAIMSASLGERVTMTCTATSSVSSSYLHWYQQKPGSSPKLWIYSTSNLASGVPARFSGSGSGTSYSLTISSMEAEDAATYYCHQYHRSPPWTFGGGTKLEIK
notes: also called 3D4 mAb; clone 3D4
no binding (tested: about 10 µg/spot): [1] | [2] | peptide 08/08-2 | peptide 08/08-2′
